{"source": "patent US12043671B2", "about": "“Antibodies targeting an amphiregulin-derived cell surface neo-epitope” (Gundersen Lutheran Medical Foundation, Inc., priority 2021, dated 2024)", "key": {"[1]": {"system": "MCF7 breast cancer cells", "assay": "MTT cytotoxicity assay", "conditions": "MCF7, 1.56-200 nM, 72 h", "method": "(§1) The cells were seeded at a density of 5000 cells/well in 96-well plates. Approximately 24 h after cell seeding, the cells were treated with varying doses (1.56, 3.125, 6.25, 12.5, 25, 50, 100 and 200 nM) of MMAE, 1A3 and 1A3-VC-PAB-MMAE. Untreated cells were used as control. After incubating for 72 h, the medium was aspirated and 50 μL of serum-free media and 50 μL of MTT solution (5 mg/mL solution in PBS) was added into each well; the cells were then incubated for 3 h at 37° C. The formazan crystals formed were dissolved with 4 mM HCl, 0.1% NP40 in isopropanol. The absorbance was measured at 590 nm using VersaMax Microplate Reader (Molecular Devices LLC, San Jose, California, USA). The assays were performed in triplicate."}, "[2]": {"system": "MCF-7 cells", "assay": "Tubulin staining (microtubule integrity)", "assay_type": "cell-based, human", "conditions": "48 h treatment", "description": "FIGS. 4A-4E. In vitro 1A3-MMAE cytotoxicity in MCF-7 (FIG. 4A) and MCF-7F (FIG. 4B) cells measured by MTT assay after treatment with 1A3-MMAE, 1A3 or MMAE. FIG. 4C: Clonogenic growth of MCF-7 or MCF-7F cells after exposure to 1A3-MMAE and replating. FIG. 4D: The quantification of clonogenic growth assays in FIG. 4C. (FIG. 4E). Tubulin staining of MCF-7 cells after 48 h treatment with MMAE, 1A3, 1A3-MMAE (40× magnification)."}, "[3]": {"system": "MCF7-F (fulvestrant-resistant MCF7) breast cancer cells", "assay": "MTT cytotoxicity assay", "conditions": "1.56-200 nM, 72 h", "method": "as §1"}, "[4]": {"system": "MCF7 cells", "assay": "Internalization and intracellular localization of 1A3-pHrodo, live-cell imaging", "assay_type": "cell-based, human", "description": "In order to study internalization, 1A3 was conjugated with pHrodo iFL Red dye using pHrodo iFL Red Microscale Protein Labeling Kit (P36014, Thermo Fisher Scientific). MCF7 cells were seeded in 12 mm Nunc Glass Bottom Dish, at a density of 1 ×10^5 cells/dish. After allowing the cells to attach overnight, the cells were incubated for 60 min with […] Hoechst dye for nuclei staining and LysoTracker® Green DND-26 (Thermo Fisher Scientific) for lysosomal labeling. The cells were then incubated with 1A3-pHrodo (2 μg/mL) for 20 min at 37° C. After washing the wells with PBS, the cells were supplemented with 1× live-cell imaging solution (Molecular probes, Thermo Fisher Scientific). Fluorescence images were acquired at 30 min intervals for 2.5 h with the Olympus 1×71 inverted fluorescence microscope (Olympus, Shinjuku, Tokyo, Japan). TAPI-2 (20 μM)—pre-treatment was performed overnight, with DMSO serving as a control."}, "[5]": {"target": "T1, peptide representing the neo-epitope of the ADAM17-cleavage product of human AREG (Homo sapiens, UniProt P15514)", "T1 construct": "host or cells: synthetic peptide", "assay": "ELISA of rabbit IgG candidates against peptides representing cleaved and full length AREG", "assay_type": "binding", "conditions": "IgG format; cleaved vs uncleaved AREG peptide", "description": "FIGS. 1A-1C. Isolation of antibodies that selectively recognize a peptide representing cleaved AREG. FIG. 1A: Schematic representation of the AREG cleavage and EGFR activation process, one consequence of which is the internalization of the small transmembrane fragment that remains cell-associated after TACE/ADAM17-mediated cleavage. FIG. 1B: Schematic representation of phage panning strategy using a peptide representing the cleaved AREG neo-epitope adhered to the well and a peptide representing the non-cleaved AREG region in the liquid phase.\nRabbit monoclonal IgG antibodies specific to cleaved-AREG were identified in contracted screening (Oak Biosciences Inc., Sunnyvale, CA, USA) using a recombinant Rabbit naïve phage display library (scFv format, VK-linker-VH) screening platform after four rounds of panning and ELISA validation. For panning, phage was selected against a peptide modeling the ADAM17-cleaved cell-associated epitope of AREG,^12 represented by the N-terminal region of THSMIDSSLSKI (SEQ ID NO: 2), and counter-selected against a peptide spanning this region (SMKTHSMIDSSLSKIAC; SEQ ID NO: 9), representing uncleaved AREG. […] GMF-1A3, referred to hereafter as simply “1A3”, was the antibody chosen for further characterization in this Example."}}, "note": "Non-standard residues stand in square brackets, D forms with d. Residues, ends and D or L forms follow the SMILES beside them. *: point of attachment. Dolaproine = CO[C@@H]([C@@H]1CCCN1)[C@@H](C)C(=O)O; Dil = CC[C@H](C)[C@H](NC)[C@@H](CC(=O)O)OC; X1 = C[C@@H](N*)[C@@H](O)c1ccccc1; NMeV = CN[C@H](C(=O)O)C(C)C", "data": [{"molecule": "CC[C@H](C)[C@@H]([C@@H](CC(=O)N1CCC[C@H]1[C@H](OC)[C@@H](C)C(=O)N[C@H](C)[C@@H](O)c1ccccc1)OC)N(C)C(=O)[C@@H](NC(=O)[C@@H](NC)C(C)C)C(C)C", "note": "[MMAE, monomethyl auristatin E, reference compound] (H-[NMeV]V[Dil][Dolaproine]-X1)", "values": [{"measurement": "cytotoxicity by MTT assay", "setting": "[1]", "value": "potently killed the cells"}, {"measurement": "tubulin disruption (microtubule integrity)", "setting": "[2]", "value": "exhibited tubulin disruption"}, {"measurement": "cytotoxicity by MTT assay", "setting": "[3]", "value": "potently killed the cells"}]}, {"molecule": "1A3-pHrodo (conjugate) VH: QSVKESEGRLVTPGTPLRLTCTVAGYSLSRYHMCWVRQAPGKGLEWIGMIGGSGRTDYASWAKGRFTISKTSTTVDLKITSPTTEDTATYFCSTVYTDSDGDFWGPGTLVTVSS VL: AELDMTQTPSSKSVPVGGTVTINCQASESVYSNDRLAWFQQKPGQPPKLLIYYASTLASGVPSRFKGSGSGTQFTLTISDLECADAATYYCQSCYDMSSYGVAFGGGTELEIL", "values": [{"measurement": "time of treatment after which red fluorescence (presence in acidic endosomes) was evident", "setting": "[4]; 1A3-pHrodo 2 μg/mL", "value": 30, "unit": "min"}, {"measurement": "fluorescence development after pretreatment with ADAM17 inhibitor TAPI-2", "setting": "[4]; TAPI-2 20 μM overnight pre-treatment", "value": "prevented the development of fluorescence"}]}, {"molecule": "GMF-3A3: Rabbit monoclonal IgG specific to cleaved AREG; VH SEQ ID NO: 5, VL SEQ ID NO: 6 (antibody, V domains shown, 3A3 antibody, Heavy chain; 3A3 antibody, Light chain) VH: QQQLVESGGRLVTPGTPLTLTYTVSGFSLSDYHMSWVRQAPGKGLQWIATISNRGNTYYASWAKGRFTISKTSTTVDLKITSPTTEDTATYFCARDNVHGDGVLVFYLWGPGTLVTVSS VL: AELVMTQTPASVSEPVGGTVTIKCQASQSIGTNLAWYQQKPGQPPKRLIYKASTLASGVSSRFKGSGSGTEFTLTISDLECADAATYYCQGYYSGDSNAFGGGTEVVVK", "values": [{"measurement": "selectivity for cleaved AREG by ELISA", "setting": "[5]", "value": "selectivity for cleaved AREG was confirmed"}]}, {"molecule": "GMF-3E4: Rabbit monoclonal IgG specific to cleaved AREG; VH SEQ ID NO: 7, VL SEQ ID NO: 8 (antibody, V domains shown, 3E4 antibody, Heavy chain; 3E4 antibody, Light chain) VH: QSVKESEGRLVTPGTPLTLTCTVSGFSLSDYWMSWVRQAPGKGLEWIGIAGYSDNTYYASRAKGRFTISKTSTTVVLKITRPTTEDTATYFCVRDLYGVYSSGTTLWGPGTLVTVSS VL: AELVMTQTPSPVSAAVGGTVTISCQSSQSVYNNNRLAWFQQKPGQPPKLLIYYASTLASGVSSRFKGSGSGTQFTLIISDVVCDDAATYYCQGYYSGGITGFGGGTEVVVK", "values": [{"measurement": "selectivity for cleaved AREG by ELISA", "setting": "[5]", "value": "selectivity for cleaved AREG was confirmed"}]}]}
